Experimental data: article PMC10581125

Target: Klebsiella phage GH-K3-derived depolymerase Depo32 (Klebsiella phage GH-K3)
Assay: cryo-EM structure; Depo32 purified by size exclusion chromatography, 0.5-1.0 mg/mL, on glow-discharged C-flat carbon grids; 2.46 Å nonsymmetrized and 2.32 Å C3-symmetrized maps; homotrimer

For “Klebsiella phage GH-K3-derived depolymerase Depo32 (enzyme)”, the stoichiometry N was 3.
